Laboratory results from patent publication US20140271653A1.
“And” between values parts separate entries of the source, which are not always exact repeats. Equal entries are not always repeated.

Columns and labels:
[1] = target: RSV-F of RSV subtype A lab strains; assay: cell-based or functional assay
[2] = target: RSV-F of RSV subtype B lab strains; assay: cell-based or functional assay

B1: H1H3592P3 (antibody, V domains shown)
VH: EVQLVESGGDLVQPGRSLRLSCVASGFTFDDYAMHWVRQAPGKGLEWVSGVSWSGSTVGYADSVKGRFTVSRDNAQKSLYLQMNSLRAEDTALYYCVKDAYKFNYYYYGLDVWGQGTTVTVSS
VL: EIVMTQSPATLSVSPGERATLSCRASQTILSNLAWYLQKPGQAPRLLIYGASTRATGLPARFSGSGSGTEFTLTISSLQSEDFAVYYCQQYNNWPLTFGGGTKVEIK
B1 was tested, and the neutralization potency on HEp-2 cells, fold against control I [1] was 15 fold and 17 fold and the neutralization potency on HEp-2 cells, fold against control I [2] was 2 fold and 5 fold.
